# From the supplement of paper PMC7877785
# ± gives the uncertainty stated by the source.
# Experiment: self-splicing fitness, log relative to wild type (ln ratio); higher = more splicing; Tetrahymena group I intron in knt gene, E. coli kanamycin selection, DiMSum; sequences stand for … in CUCUCU…GGAGGGAAAAGUUAUCAGGCAUGCACCUGGUAGCUAGUCUUUAAACCAAUAGAUUGCAUCGGUUUAAAAGGCAAGACCGUCAAAUUGCGGGAAAGGGGUCAACAGCCGUUCAGUACCAAGUCUCAGGGGAAACUUUGAGAUGGCCUUGCAAAGGGUAUGGUAAUAAGCUGACGGACAUGGUCCUAACCACGCAGCCAAGUCCUAAGUCAACAGAUCUUCUGUUGAUAUGGAUGCAGUUCACAGACUAAAUGUCGGUCGGGGAAGAUGUAUUCUUCUCAUAAGAUAUAGUCGGACCUCUCCUUAAUGGGAGCUAGCGGAUGAAGUGAUGCAACACUGGAGCCGCUGGGAACUAAUUUGUAUGCGAAAGUAUAUUGAUUAGUUUUGGAGUACUCGUGGUCG
# Procedure, shortened: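 The eight P1ex-region nucleotides of an intron in the knt kanamycin-resistance gene on pET-22b(+) were all randomised and the library put into E. coli BL21(DE3). Six replicate transformations were grown overnight at 37°C or 30°C on LB agar with or without 25 μg/mL kanamycin, together with 100 μg/mL carbenicillin, 50 μM IPTG and 0.2% rhamnose. Colonies were pooled and amplicon-sequenced on an Illumina HiSeq 2500. Fitness from DiMSum is the error-weighted combination of wild-type-normalised replicate fold changes, kanamycin over none.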
Sequence,self-splicing fitness (ln) (30 °C),self-splicing fitness (ln) (37 °C)
AUGGAGCAAUAUUACGCAUA,-1.53 ± 0.42,-1.29 ± 0.23
GUAAAGCAAUAUUACGGCAC,0.217 ± 0.12,0.134 ± 0.15
GUCGAGCAAUAUUACGAUGA,-1.6 ± 0.15,-0.827 ± 0.14
CUUCAGCAAUAUUACGGCAG,-0.556 ± 0.12,-0.351 ± 0.14
AUGGAGCAAUAUUACGAAAG,-2.94 ± 0.24,-2.11 ± 0.32
GCACAGCAAUAUUACGCAAA,-1.72 ± 0.15,-0.898 ± 0.16
GACGAGCAAUAUUACGUUCA,-1.67 ± 0.19,-0.881 ± 0.16
CGUAAGCAAUAUUACGUUUU,-4.1 ± 0.18,-3.05 ± 0.19
UGAUAGCAAUAUUACGCUCC,–,-0.916 ± 0.3
GGUUAGCAAUAUUACGAGGU,–,-2.43 ± 0.32
CAUAAGCAAUAUUACGGCUU,-2.75 ± 0.2,-3.07 ± 0.32
CGAAAGCAAUAUUACGUAUG,-1.15 ± 0.057,-0.533 ± 0.083
UGUUAGCAAUAUUACGACGC,-1.59 ± 0.2,-1.47 ± 0.32
AGCUAGCAAUAUUACGCCAG,-3.78 ± 0.36,-2.27 ± 0.35
GCAUAGCAAUAUUACGUUCG,-1.43 ± 0.08,0.166 ± 0.09
GUUUAGCAAUAUUACGGGAU,-2.57 ± 0.14,-1 ± 0.15
ACAAAGCAAUAUUACGGGUA,-1.86 ± 0.09,-0.94 ± 0.087
UUCCAGCAAUAUUACGAUCG,-2.6 ± 0.12,-1.04 ± 0.14
GAGGAGCAAUAUUACGCACG,–,-0.155 ± 0.47
ACAGAGCAAUAUUACGAAGU,-2.65 ± 0.14,-2.58 ± 0.29
UCGGAGCAAUAUUACGCAGA,–,-2.13 ± 0.23
AGAGAGCAAUAUUACGGGGG,-2.78 ± 0.34,-1.7 ± 0.36
GCCCAGCAAUAUUACGCCUG,-3.5 ± 0.3,-2.64 ± 0.26
CAGCAGCAAUAUUACGUACC,-3.85 ± 0.16,-2.46 ± 0.16
ACCGAGCAAUAUUACGGCCA,-0.778 ± 0.13,-0.469 ± 0.14
CUGCAGCAAUAUUACGCCGA,–,-2.61 ± 0.36

Sequence,self-splicing fitness (ln) (30 °C),self-splicing fitness (ln) (37 °C)
AAUCAGCAAUAUUACGAUGC,-0.408 ± 0.076,0.219 ± 0.096
AUACAGCAAUAUUACGCUAG,-1.61 ± 0.079,-1.23 ± 0.096
GGAAAGCAAUAUUACGGAGC,-1.43 ± 0.17,-1.49 ± 0.2
UUACAGCAAUAUUACGAAAG,-2.87 ± 0.29,-2.73 ± 0.33
GUUGAGCAAUAUUACGCGGU,-3.32 ± 0.41,-2.73 ± 0.34
UACUAGCAAUAUUACGCGCA,-0.569 ± 0.071,0.207 ± 0.094
ACAGAGCAAUAUUACGUUGA,-2.69 ± 0.21,-3.28 ± 0.27
CACGAGCAAUAUUACGAUUU,-3.18 ± 0.18,-1.99 ± 0.13
GGAGAGCAAUAUUACGCAAU,-3.02 ± 0.2,-2.55 ± 0.31
CUAUAGCAAUAUUACGAUAC,–,-2.61 ± 0.33
UAUUAGCAAUAUUACGCCAU,–,-1.68 ± 0.21
GACGAGCAAUAUUACGGAUU,–,-2.03 ± 0.19
GCAGAGCAAUAUUACGUGUG,-2.07 ± 0.22,-2.63 ± 0.25
GCAUAGCAAUAUUACGACAU,-1.03 ± 0.013,-0.295 ± 0.032
ACGUAGCAAUAUUACGACAA,-0.894 ± 0.071,-0.495 ± 0.084
CGGAAGCAAUAUUACGCAAC,-1.88 ± 0.29,–
GGCUAGCAAUAUUACGCUCC,-2.32 ± 0.26,–
CAGAAGCAAUAUUACGUUAC,–,-2.72 ± 0.2
UAGUAGCAAUAUUACGAGAG,-3.43 ± 0.24,-2.67 ± 0.18
CUAAAGCAAUAUUACGCUUA,-3.75 ± 0.37,-2.75 ± 0.39
UUGGAGCAAUAUUACGGCCA,-2.23 ± 0.19,-0.299 ± 0.15
UUCCAGCAAUAUUACGGAAG,-2.85 ± 0.19,-2.16 ± 0.2
AGUUAGCAAUAUUACGAAUA,-1.43 ± 0.14,-0.681 ± 0.21
CCGUAGCAAUAUUACGGGAU,-4.51 ± 0.29,-2.53 ± 0.2
GUGAAGCAAUAUUACGUUAG,-1.06 ± 0.098,0.151 ± 0.14
GUCAAGCAAUAUUACGGCUG,-4 ± 0.3,–

Sequence,self-splicing fitness (ln) (30 °C),self-splicing fitness (ln) (37 °C)
AUGUAGCAAUAUUACGAACA,-0.529 ± 0.14,0.476 ± 0.15
CGCAAGCAAUAUUACGCUUC,-3.18 ± 0.3,–
ACUGAGCAAUAUUACGUCUG,-3.59 ± 0.28,-2.43 ± 0.2
CAGAAGCAAUAUUACGAAUG,-2.6 ± 0.14,-0.683 ± 0.13
AUCGAGCAAUAUUACGGCCC,-3.15 ± 0.35,1.32 ± 0.32
CGUUAGCAAUAUUACGUGGA,-2.98 ± 0.18,-1.68 ± 0.13
GCGCAGCAAUAUUACGGUAA,-1.55 ± 0.11,0.236 ± 0.11
CAGAAGCAAUAUUACGACCU,-2.86 ± 0.4,0.0264 ± 0.23
AUAUAGCAAUAUUACGCCUA,-0.306 ± 0.17,-0.0941 ± 0.12
GCAAAGCAAUAUUACGAGUG,-2.57 ± 0.097,-0.371 ± 0.092
GAAAAGCAAUAUUACGCCAC,-5.15 ± 0.38,-2.7 ± 0.36
UUCAAGCAAUAUUACGUAUA,-1.48 ± 0.1,-0.136 ± 0.096
UAGAAGCAAUAUUACGUAGG,-1.78 ± 0.093,-1.61 ± 0.16
AGCCAGCAAUAUUACGAAGU,-4.11 ± 0.22,-1.75 ± 0.12
CAUUAGCAAUAUUACGACGU,-1.47 ± 0.12,-0.0623 ± 0.14
CCAAAGCAAUAUUACGCUGU,-3.89 ± 0.14,-2.69 ± 0.15
CCAGAGCAAUAUUACGGGGA,-3.06 ± 0.18,-2.61 ± 0.21
CGUUAGCAAUAUUACGUCCU,-1.24 ± 0.1,-0.9 ± 0.15
CGGAAGCAAUAUUACGCGUC,-2.62 ± 0.14,-3.1 ± 0.37
ACCGAGCAAUAUUACGCGUU,-2.95 ± 0.16,-1.58 ± 0.18
CUCAAGCAAUAUUACGGUCC,-3.02 ± 0.22,0.396 ± 0.18
AUGGAGCAAUAUUACGCUAA,-3.13 ± 0.45,-1.32 ± 0.45
GCAGAGCAAUAUUACGCAAC,-1.53 ± 0.35,-2.13 ± 0.43
GGACAGCAAUAUUACGUGGU,-2.9 ± 0.12,-1.08 ± 0.11
UUUCAGCAAUAUUACGAAGC,-0.935 ± 0.36,–
UAGGAGCAAUAUUACGCAGC,–,-2.79 ± 0.36

Sequence,self-splicing fitness (ln) (30 °C),self-splicing fitness (ln) (37 °C)
GCUCAGCAAUAUUACGACCU,-0.614 ± 0.2,-0.401 ± 0.21
CUAUAGCAAUAUUACGGCGU,-4.65 ± 0.46,-2.24 ± 0.43
UGGCAGCAAUAUUACGGACC,-2.02 ± 0.33,-0.716 ± 0.24
UGUCAGCAAUAUUACGCCCU,-0.458 ± 0.13,-0.00845 ± 0.19
AACGAGCAAUAUUACGCCAG,-4.01 ± 0.37,-1.56 ± 0.32
GAGUAGCAAUAUUACGGUUC,-1.02 ± 0.12,-2.36 ± 0.3
CGCCAGCAAUAUUACGCGCU,-3.54 ± 0.15,-2.52 ± 0.15
GUUCAGCAAUAUUACGGUAU,-0.357 ± 0.062,0.309 ± 0.073
AAGCAGCAAUAUUACGGAAC,-3.6 ± 0.3,–
UAGAAGCAAUAUUACGACCU,0.0379 ± 0.17,-1.35 ± 0.14
GCUUAGCAAUAUUACGCGUA,-1.39 ± 0.16,-1.71 ± 0.17
AGCAAGCAAUAUUACGUGUA,-2.19 ± 0.07,-1.49 ± 0.072
AUAUAGCAAUAUUACGAGGA,–,-2.44 ± 0.38
AAAUAGCAAUAUUACGGAUG,-2.5 ± 0.16,-0.984 ± 0.12
GUAUAGCAAUAUUACGAAAC,–,-1.02 ± 0.49
AGGGAGCAAUAUUACGUUGU,-3.01 ± 0.18,-2.9 ± 0.2
CUCUAGCAAUAUUACGAGUG,-1.62 ± 0.14,-1.09 ± 0.15
ACGCAGCAAUAUUACGACGU,-3.11 ± 0.1,-0.828 ± 0.097
GCCCAGCAAUAUUACGAUUU,-1.07 ± 0.076,-0.735 ± 0.1
UUUUAGCAAUAUUACGUAAC,-3.07 ± 0.31,-1.57 ± 0.38
CACGAGCAAUAUUACGAUUG,-2.19 ± 0.11,-1.6 ± 0.13
GCUAAGCAAUAUUACGCUCA,-1 ± 0.11,-1.52 ± 0.14
AAGAAGCAAUAUUACGAUAG,-3.6 ± 0.28,-1.87 ± 0.2
